Test results: patent US20260139017A1, “COMPOSITIONS AND METHODS USING REELIN IN ALZHEIMER'S DISEASE” (The General Hospital Corporation, priority 2022, published 2026)

What was measured:
[1] = system: pDAB1 (Tyr232); experiment: HRECs treated 5 minutes with HEK 293T-derived mini-RELN media, pDAB1 western blot; assay type: cell-based, human; conditions: HEK 293T-derived media 1:1, 1:4, 1:14, 5 minutes
Description: The effect of in vitro treatment with RELN or miniRELN protein was also evaluated. HRECs were cultured in EBM-2 media enriched with EGM-2 Single Quots (Lonza) at 37° C. and 5% CO2 and experimentally tested at passage 7. 24 h prior experiment, cells were plated on a 6-well plate at 500,000 cells/mL. Two hours before the experiment, the cells were washed with PBS to remove residual growth media and then incubated with a starving media including EBM-2, 1% GlutaMax+0,2% Normicin. Treatments was conducted using media derived from HEK 293T cells transiently transfected for 24 h with different mini-RELN constructs in the presence of Lipofectamine 2000. HEK-derived Lipofectamine2000-media was used as negative control. HEK 293T-derived media was tested at different ratio 1:1, 1:4, and 1:14 (Transfected media:Starving media). Each treatment was incubated for 5 minutes and cells were subsequently harvested in lysis buffer was applied constituted of RIPA (Cell signaling), proteases inhibitors (cOmplete™, Mini, EDTA-free Protease Inhibitor Cocktail, Roche), phosphatases inhibitors (PhosSTOP, Roche), 1 μL of proteasome inhibitor MG-132 10 mM, 1% Triton X 100. The lysates were scraped and centrifugated at 15000 rpm for 10 minutes at 4° C. Total protein levels were quantified via BCA assay. […] We detected pDAB1 (Tyr232; 1:1000, rabbit, #3325 Cell signaling), and Beta actin (1:5000, mouse, #66009-1-Ig, Proteintech. Antibodies were diluted using Intercept® (TBS) Blocking Buffer and incubated overnight at 4C under gentle shaking. Prior secondary antibody incubation, membranes were washes 2 times using TBS-T for 10 minutes. As secondary antibodies we used IR Dye 800n CW Goat-anti-Rabbit (925-32211, Licor) and IR Dye 680 CW Goat-anti-Mouse (925-68070, Licor) both diluted 1:10000 in blocking buffer for 1 h at room temperature under gentle shaking. Membranes were washed three times with TBS-T prior IR detection using Odyssey imager. To quantify the results, each band was quantified using ImageJ and data expressed as pDAB1:βActin ratio normalized to the control. […]

[2] = system: pDAB1 (Tyr232); experiment: HRECs treated 5 minutes with recombinant mini-RELN, pDAB1 western blot; assay type: cell-based, human; conditions: 5 minutes, 4 ug/mL recombinant protein
Description: For in vitro screening of constructs using recombinant mini-RELN on HRECs, the cells were cultured in EBM-2 media enriched with EGM-2 Single Quots (Lonza) at 37° C. and 5% CO2 and experimentally tested at passage 7. 24 h prior experiment, cells were plated on a 6-well plate at 500,000 cells/mL. Two hours before the experiment, the cells were washed with PBS to remove residual growth media and then incubated with a starving media including EBM-2, 1% GlutaMax+0.2% Normicin. Treatments was conducted using recombinant mini RELN constructs obtained from Innovagen and Recombinant Mouse Reelin Protein from R&D systems (3820-MR-025/CF). Each treatment was incubated for 5 minutes at 4 ug/mL concentration and cells were subsequently harvested in lysis buffer was applied constituted of RIPA (Cell signaling), proteases inhibitors (cOmplete™, Mini, EDTA-free Protease Inhibitor Cocktail, Roche), phosphatases inhibitors (PhosSTOP, Roche), 1 μL of proteasome inhibitor MG-132 10 mM, 1% Triton X 100. The lysates were scraped and centrifugated at 15000 rpm for 10 minutes at 4° C. Total protein levels were quantified via BCA assay. For Western Blotting, 3.5 ug protein homogenates were prepared under reducing and denaturing conditions using Laemmli buffer enriched with 10 mM DTT and 5 min boiling. Samples were electrophoretically separated in a 4-20% Gel at 90V and protein transferred to a PVDF membrane using iBlot™ 2 Dry Blotting System. The membrane was blocked using Intercept® (TBS) Blocking Buffer for 2 hours. We detected pDAB1 (Tyr232; 1:1000, rabbit, #3325 Cell signaling), and total protein staining (Licor). Antibodies were diluted using Intercept® (TBS) Blocking Buffer and incubated overnight at 4C under gentle shaking. Prior secondary antibody incubation, membranes were washed 2 times using TBS-T for 10 minutes. As secondary antibodies we used IR Dye 800n CW Goat-anti-Rabbit (925-32211, Licor) diluted 1:10000 in blocking buffer for 1 h at room temperature under gentle shaking. Membranes were washed three times with TBST-T prior IR detection using Odyssey imager. To quantify the results, each band was quantified using ImageJ and data expressed as pDABL:total protein ratio normalized to the control.

Molecule | pDAB1 / Dab1 signaling activation [1] | pDAB1 levels [2]
Il2ss-flagMini-RELNFspCR50R5-6CtermH3447R (protein) MYRMQLLSCIALSLALVTNSGGDYKDDDDKTGGAAGYYPRFSPFFFLCTHHGELEGDGEQGEVLISLHIAGNPTYYVPGQEYHVTISTSTFFDGLLVTGLYTSTSVQASQSIGGSSAFGFGIMSDHQFGNQFMCSVVASHVSHLPTTNLSFIWIAPPAGTGCVNFMATATHRGQVIFKDALAQQLCEQGAPTDVTVHPHLAEIHSDSIILRDDFDSYHQLQLNPNIWVECNNCETGEQCGAIMHGNAVTFCEPYGPRELITTGLNTTTASVLQFSIGSGSCRFSYSDPSIIVLYAKNNSADWIQLEKIRAPSNVSTIIHILYLPEDAKGENVQFQWKQENLRVGEVYEACWALDNILIINGSRGGQTNATRFRLWQPYNNGKKEEIWIVDDFIIDGNNVNNPVMLLDTFDFGPREDNWFFYPGGNIGLYCPYSSKGAPEEDSAMVFVSNEVGEHSITTRDLNVNENTIIQFEINVGCSTDSSSADPVRLEFSRDFGATWHLLLPLCYHSSSHVSSLCSTEHHPSSTYYAGTMQGWRREVVHFGKLHLCGSVRFRWYQGFYPAGSQPVTWAIDNVYIGPQCEEMCNGQGSCINGTKCICDPGYSGPTCKISTKNPDFLKDDFEGQLESDRFLLMSGGKPSRKCGILSSGNNLFFNEDGLRMLMTRDLDLSHARFVQFFMRLGCGKGVPDPRSQPVLLQYSLNGGLSWSLLQEFLFSNSSNVGRYIALEIPLKARSGSTRLRWWQPSENGHFYSPWVIDQILIGGNISGNMVLEDDFTTLDSRKWLLHPGGTKMPVCGSTGDALVFIEKASTRYVVSTDVAVNEDSFLQIDFAVSCSVTDSCYAIELEYSVDLGLSWHPLVRDCLPTNVECSRYHLQRILVSDTFNKWTRITLPLPPYTRSQATRFRWHQPAPFDKQQTWAIDNVYIGDGCIDMCSGHGRCIQGNCVCDEQWGGLYCDDPETSLPTQLKDNFNRAPSSQNWLTVNGGKLSTVCGAVASGMALHFSGGCSRLLVTVDLNLTNAEFIQFYFMYGCLITPNNRNQGVLLEYSVNGGITWNLLMEIFYDQYSKPGFVNILLPPDAKEIATRFRWWQPRHDGLDQNDWAIDNVLISGSASTRKQNYMMNFSRQHGLRRFYNRRRRSLRRYP | more robust compared to controls and compared to 233A | 
IL2ss-6xHis-hReelin R3-R6 CT-H3447R (protein) MYRMQLLSCIALSLALVTNSGGHHHHHHGGSRFSSTAPVLLQYSHDAGMSWFLVKEGCYPASAGKGCEGNSRELSEPTMYHTGDFEEWTRITIVIPRSLASSKTRFRWIQESSSQKNVPPFGLDGVYISEPCPSYCSGHGDCISGVCFCDLGYTAAQGTCVSNVPNHNEMFDRFEGKLSPLWYKITGAQVGTGCGTLNDGKSLYFNGPGKREARTVPLDTRNIRLVQFYIQIGSKTSGITCIKPRTRNEGLIVQYSNDNGILWHLLRELDFMSFLEPQIISIDLPQDAKTPATAFRWWQPQHGKHSAQWALDDVLIGMNDSSQTGFQDKFDGSIGGGTLDSRKWLLHPGGTKMPVCGSTGDALVFIEKASTRYVVSTDVAVNEDSFLQIDFAVSCSVTDSCYAIELEYSVDLGLSWHPLVRDCLPTNVECSRYHLQRILVSDTFNKWTRITLPLPPYTRSQATRFRWHQPAPFDKQQTWAIDNVYIGDGCIDMCSGHGRCIQGNCVCDEQWGGLYCDDPETSLPTQLKDNFNRAPSSQNWLTVNGGKLSTVCGAVASGMALHFSGGCSRLLVTVDLNLTNAEFIQFYFMYGCLITPNNRNQGVLLEYSVNGGITWNLLMEIFYDQYSTGGSGGSTRKQNYMMNFSRQHGLRRFYNRRRRSLRRYP | efficacy | increased pDAB1 levels
